Biological target: COL4A3 (immobilised as Fc-rat COL4A3 or COL4A3-His)
Test: BLI (Octet RED96); COL4A3 immobilised (Fc-rat COL4A3 on anti-human Fc or COL4A3-His on HIS1K, not said which), test article titrated from 50 nM

Kd: 23 µM
B1: CDAB14 (scFv)
chain: DCGPPPDIPNARPILGRHSKFAEQSKVAYSCNNGFKQVPDKSNIVVCLENGQWSSHETFCEKSCVAPERLSFASLKKEYLNMNFFPVGTIVEYECRPGFRKQPPLPGKATCLEDLVWSPVAQFCKKKSCPNPKDLDNGHINIPTGILFGSEINFSCNPGYRLVGVSSTFCSVTGNTVDWDDEFPVCTEIHCPEPPKINNGIMRGESDSYTYSQVVTYSCDKGFILVGNASIYCTVSKSDVGQWSSPPPRCIEKSKVPTKKPTINVPSTGTPSTPQKPTTESVPNPGDQPTPQKPSTVKVSATQHVPVTKTTVRHPIRTSTDKGEPNTGGGGGSGGGGSGGGGSGGGGSQVQLLESGPGLVKPSGTLSLTCTVSGGSISSTNWWTWVRQSPGTGLEWIGHIYHSGSTDYNPSLKSRVTISIDKSKNQFSLKMTSVTAADTAVYYCACAAQYHWKGLDPWGHGTLVTVSSGGGGGSGGGGSGGGGSDIVMTQTPLSLSVTPGQPASISCMSSQSLLHSDGKTYLYWYLQKPGQPPQLLIYEVSNRFSGVPDRFSGSGSGTDFTLKISRVEAEDVGIYYCMQSIQLPITFGQGTRLEIKHHHHHH

— patent US20250320292A1
